Results as given in patent US20190135872A1.
pKd: −log10 of the molar value.

Tests used:
[1] = target: BG505 NFL-Q563P (HIV-1 BG505 (clade A)); test: BLI, IgG captured, trimer as analyte
[2] = target: BG505 NFL (I559P) parental (HIV-1 BG505 (clade A)); test: BLI, IgG captured, trimer as analyte
[3] = target: 16055 NFL-CC2 (HIV-1 16055 (clade C)); test: BLI, IgG captured, trimer as analyte
[4] = target: 16055 NFL-Q562P (HIV-1 16055 (clade C)); test: BLI, IgG captured, trimer as analyte
[5] = target: BG505 NFL-S553P (HIV-1 BG505 (clade A)); test: BLI, IgG captured, trimer as analyte
[6] = target: BG505 NFL-TD+CC2-D4K_L555P (HIV-1 BG505 (clade A)); test: BLI, IgG captured, trimer as analyte
[7] = target: 16055 NFL-Q563P (HIV-1 16055 (clade C)); test: BLI, IgG captured, trimer as analyte
[8] = target: BG505 NFL-Q562P (HIV-1 BG505 (clade A)); test: BLI, IgG captured, trimer as analyte
[9] = target: 16055 NFL-TD+CC2-D4K_I559P (HIV-1 16055 (clade C)); test: BLI, IgG captured, trimer as analyte
[10] = target: 16055 NFL-TD+CC2-D4K_L555P (HIV-1 16055 (clade C)); test: BLI, IgG captured, trimer as analyte
[11] = target: BG505 NFL-N554P (HIV-1 BG505 (clade A)); test: BLI, IgG captured, trimer as analyte
[12] = target: BG505 NFL-CC2 (HIV-1 BG505 (clade A)); test: BLI, IgG captured, trimer as analyte
[13] = target: 16055 NFL-L555P (HIV-1 16055 (clade C)); test: BLI, IgG captured, trimer as analyte
[14] = target: BG505 NFL-L555P (HIV-1 BG505 (clade A)); test: BLI, IgG captured, trimer as analyte
[15] = target: BG505 NFL-TD+CC2-D4K_I559P (HIV-1 BG505 (clade A)); test: BLI, IgG captured, trimer as analyte
[16] = target: JRFL NFL-CC2 (HIV-1 JRFL (clade B)); test: ELISA, His-captured trimer
[17] = target: BG505 NFL (I559P) parental (HIV-1 BG505 (clade A)); test: ELISA, His-captured trimer
[18] = target: 16055 NFL-CC2 (HIV-1 16055 (clade C)); test: ELISA, His-captured trimer
[19] = target: BG505 NFL-TD+CC2-D4K_L555P w/rEK (HIV-1 BG505 (clade A)); test: ELISA, His-captured trimer
[20] = target: 16055 NFL-TD+CC2-D4K_L555P w/rEK (HIV-1 16055 (clade C)); test: ELISA, His-captured trimer
[21] = target: BG505 NFL-TD+CC2-D4K_I559P w/rEK (HIV-1 BG505 (clade A)); test: ELISA, His-captured trimer
[22] = target: BG505 NFL-TD+CC2-D4K_L555P (HIV-1 BG505 (clade A)); test: ELISA, His-captured trimer
[23] = target: 16055 NFL-Q563P (HIV-1 16055 (clade C)); test: ELISA, His-captured trimer
[24] = target: 16055 NFL-TD+CC2-D4K_I559P (HIV-1 16055 (clade C)); test: ELISA, His-captured trimer
[25] = target: 16055 NFL-TD+CC2-D4K_L555P (HIV-1 16055 (clade C)); test: ELISA, His-captured trimer
[26] = target: BG505 NFL-CC2 (HIV-1 BG505 (clade A)); test: ELISA, His-captured trimer
[27] = target: 16055 NFL-L555P (HIV-1 16055 (clade C)); test: ELISA, His-captured trimer
[28] = target: BG505 NFL-L555P (HIV-1 BG505 (clade A)); test: ELISA, His-captured trimer
[29] = target: 16055 NFL-TD+CC2-D4K_I559P w/rEK (HIV-1 16055 (clade C)); test: ELISA, His-captured trimer
[30] = target: BG505 NFL-TD+CC2-D4K_I559P (HIV-1 BG505 (clade A)); test: ELISA, His-captured trimer

## PG16 (antibody)
[1]
  pKd: 7.92
[2]
  pKd: 7.82
[3]
  pKd: 7.82
  koff: 0.0009 s⁻¹
  kon: 61000 M⁻¹ s⁻¹
[4]
  pKd: 8.55
  koff: 0.0005 s⁻¹
  kon: 170000 M⁻¹ s⁻¹
[5]
  pKd: 8.14
[6]
  pKd: 7.15
  koff: 0.0057 s⁻¹
  kon: 81000 M⁻¹ s⁻¹
[7]
  pKd: 8.77
  koff: 0.0003 s⁻¹
  kon: 190000 M⁻¹ s⁻¹
[8]
  pKd: 7.82
[9]
  pKd: 7.64
  koff: 0.001 s⁻¹
  kon: 43000 M⁻¹ s⁻¹
[10]
  pKd: 7.80
  koff: 0.0007 s⁻¹
  kon: 43000 M⁻¹ s⁻¹
[11]
  pKd: 7.85
[12]
  pKd: 7.37
  koff: 0.0033 s⁻¹
  kon: 78000 M⁻¹ s⁻¹
[13]
  pKd: 8.16
  koff: 0.0009 s⁻¹
  kon: 130000 M⁻¹ s⁻¹
[14]
  pKd: 8.11
[15]
  pKd: 7.23
  koff: 0.0048 s⁻¹
  kon: 81000 M⁻¹ s⁻¹
[16]
  EC50: 0.216 µg/mL
[17]
  EC50: 0.144 µg/mL
[18]
  EC50: 0.089 µg/mL
[19]
  EC50: 0.307 µg/mL
[20]
  EC50: 0.122 µg/mL
[21]
  EC50: 0.336 µg/mL
[22]
  EC50: 0.215 µg/mL
[23]
  EC50: 0.102 µg/mL
[24]
  EC50: 0.123 µg/mL
[25]
  EC50: 0.115 µg/mL
[26]
  EC50: 0.143 µg/mL
[27]
  EC50: 0.121 µg/mL
[28]
  EC50: 0.101 µg/mL
[29]
  EC50: 0.19 µg/mL
[30]
  EC50: 0.206 µg/mL

## PGDM1400 (antibody)
[1]
  pKd: 8.30
[2]
  pKd: 7.96
[3]
  pKd: 7.85
  koff: 0.0016 s⁻¹
  kon: 110000 M⁻¹ s⁻¹
[4]
  pKd: 8.85
  koff: 0.0003 s⁻¹
  kon: 230000 M⁻¹ s⁻¹
[5]
  pKd: 7.96
[6]
  pKd: 7.64
  koff: 0.002 s⁻¹
  kon: 88000 M⁻¹ s⁻¹
[7]
  pKd: 8.89
  koff: 0.0004 s⁻¹
  kon: 300000 M⁻¹ s⁻¹
[8]
  pKd: 7.89
[9]
  pKd: 7.68
  koff: 0.0021 s⁻¹
  kon: 98000 M⁻¹ s⁻¹
[10]
  pKd: 7.89
  koff: 0.0016 s⁻¹
  kon: 120000 M⁻¹ s⁻¹
[11]
  pKd: 8.60
[12]
  pKd: 7.62
  koff: 0.0018 s⁻¹
  kon: 76000 M⁻¹ s⁻¹
[13]
  pKd: 8.64
  koff: 0.0004 s⁻¹
  kon: 200000 M⁻¹ s⁻¹
[14]
  pKd: 8.29
[15]
  pKd: 7.74
  koff: 0.0016 s⁻¹
  kon: 88000 M⁻¹ s⁻¹
[16]
  EC50: 0.2 µg/mL
[17]
  EC50: 0.039 µg/mL
[18]
  EC50: 0.018 µg/mL
[19]
  EC50: 0.04 µg/mL
[20]
  EC50: 0.025 µg/mL
[21]
  EC50: 0.038 µg/mL
[22]
  EC50: 0.042 µg/mL
[23]
  EC50: 0.016 µg/mL
[24]
  EC50: 0.025 µg/mL
[25]
  EC50: 0.021 µg/mL
[26]
  EC50: 0.018 µg/mL
[27]
  EC50: 0.019 µg/mL
[28]
  EC50: 0.02 µg/mL
[29]
  EC50: 0.03 µg/mL
[30]
  EC50: 0.038 µg/mL

## PGT128 (antibody)
[16]
  EC50: 0.04 µg/mL
[17]
  EC50: 0.039 µg/mL
[18]
  EC50: 0.135 µg/mL
[19]
  EC50: 0.037 µg/mL
[20]
  EC50: 0.071 µg/mL
[21]
  EC50: 0.036 µg/mL
[22]
  EC50: 0.041 µg/mL
[23]
  EC50: 0.068 µg/mL
[24]
  EC50: 0.055 µg/mL
[25]
  EC50: 0.05 µg/mL
[26]
  EC50: 0.035 µg/mL
[27]
  EC50: 0.056 µg/mL
[28]
  EC50: 0.021 µg/mL
[29]
  EC50: 0.08 µg/mL
[30]
  EC50: 0.036 µg/mL

## PGT151 (antibody)
[1]
  pKd: 8.77
[2]
  pKd: 8.26
[3]
  pKd: 7.68
  koff: 0.0053 s⁻¹
  kon: 250000 M⁻¹ s⁻¹
[4]
  pKd: 8.04
  koff: 0.0016 s⁻¹
  kon: 180000 M⁻¹ s⁻¹
[5]
  pKd: 8.48
[6]
  pKd: 8.43
  koff: 0.0014 s⁻¹
  kon: 370000 M⁻¹ s⁻¹
[7]
  pKd: 8.05
  koff: 0.0016 s⁻¹
  kon: 180000 M⁻¹ s⁻¹
[8]
  pKd: 8.72
[9]
  pKd: 8.06
  koff: 0.0069 s⁻¹
  kon: 790000 M⁻¹ s⁻¹
[10]
  pKd: 7.89
  koff: 0.0055 s⁻¹
  kon: 45000 M⁻¹ s⁻¹
[11]
  pKd: 8.85
[12]
  pKd: 8.72
  koff: 0.0006 s⁻¹
  kon: 290000 M⁻¹ s⁻¹
[13]
  pKd: 8.24
  koff: 0.0008 s⁻¹
  kon: 150000 M⁻¹ s⁻¹
[14]
  pKd: 8.85
[15]
  pKd: 8.64
  koff: 0.0008 s⁻¹
  kon: 340000 M⁻¹ s⁻¹
[16]
  EC50: 0.139 µg/mL
[17]
  EC50: 0.062 µg/mL
[19]
  EC50: 0.085 µg/mL
[20]
  EC50: 0.056 µg/mL
[21]
  EC50: 0.091 µg/mL
[22]
  EC50: 0.073 µg/mL
[23]
  EC50: 0.047 µg/mL
[26]
  EC50: 0.059 µg/mL
[27]
  EC50: 0.048 µg/mL
[28]
  EC50: 0.058 µg/mL
[29]
  EC50: 0.041 µg/mL
[30]
  EC50: 0.065 µg/mL
